Data on 2 molecules can be found in publication PMC12485025.

Usually Kd stands for the free concentration of one partner at which half of the binding sites on the other are occupied at equilibrium, for simple one-to-one binding. Read a high Kd as lower affinity.

This series concerns the target T1, p1 NTR (Tetrahymena, UniProt Q22VV9 1-150).
T1 sequence: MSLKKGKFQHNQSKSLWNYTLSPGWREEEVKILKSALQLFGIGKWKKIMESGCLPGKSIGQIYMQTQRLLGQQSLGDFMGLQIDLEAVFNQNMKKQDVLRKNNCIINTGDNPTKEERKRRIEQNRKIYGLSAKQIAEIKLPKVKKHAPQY
Nature of the series: fluorescence polarization. A general note: Polarisation of emitted light reports the rotation of a fluorescent probe.

B1: umDNA 6-FAM (dsDNA)
DNA 1: AACTTTCTTAACATCTTAACTTTAACT
DNA 2: AGTTAAAGTTAAGATGTTAAGAAAGTT
For the molecule B1, the Kd came to 37 nM. This counts as double-digit nanomolar.

B2: hmDNA 6-FAM (27ATrich_6mA_s / 27ATrich_6FAM_a) (dsDNA)
DNA 1: AACTTTCTTAACATCTTAACTTTAACT
DNA 2: AGTTAAAGTTAAGATGTTAAGAAAGTT
modifications: N6-methyl-dA at position 13 of strand 1
On to B2, for which the equilibrium dissociation constant (Kd) is 35 nM.
